US20180236026

T1: synthetic purified T1A peptide
T1 chain: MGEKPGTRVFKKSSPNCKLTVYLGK

B1: MKK4 (purified) (protein)
chain: MAAPSPSGGGGSGGGSGSGTPGPVGSPAPGHPAVSSMQGKRKALKLNFANPPFKSTARFTLNPNPTGVQNPHIERLRTHSIESSGKLKISPEQHWDFTAEDLKDLGEIGRGAYGSVNKMVHKPSGQIMAVKRIRSTVDEKEQKQLLMDLDVVMRSSDCPYIVQFYGALFREGDCWICMELMSTSFDKFYKYVYSVLDDVIPEEILGKITLATVKALNHLKENLKIIHRDIKPSNILLDRSGNIKLCDFGISGQLVDSIAKTRDAGCRPYMAPERIDPSASRQGYDVRSDVWSLGITLYELATGRFPYPKWNSVFDQLTQVVKGDPPQLSNSEEREFSPSFINFVNLCLTKDESKRPKYKELLKHPFILMYEERAVEVACYVCKILDQMPATPSSPMYVD

Legend:
[1] = system: synthetic purified T1A peptide
[2] = molecular target: T1, synthetic purified T1A peptide

| Molecule | optimal T1A concentration for JNK3 phosphorylation by MKK7, against full-length arrestin-3 [1] | JNK3 phosphorylation by MKK4 as a function of T1A concentration (in vitro kinase assay, purified proteins) [2] | optimal T1A concentration for JNK3 phosphorylation by MKK4, against full-length arrestin-3 [2] |
| --- | --- | --- | --- |
| MKK7 (purified) | in both cases optimal T1A concentrations were ˜10-times lower than those of full-length arrestin-3 |  |  |
| B1 |  | the optimal concentration of T1A for promoting JNK3 phosphorylation by MKK4 is lower than for MKK7-JNK3 module | in both cases optimal T1A concentrations were ˜10-times lower than those of full-length arrestin-3 |
